Source: patent US12296006B2, “Anti-LY6H antibodies and antibody drug conjugates” (Bluefin BioMedicine, Inc., priority 2017, dated 2025)

Experiments:
[1] = test system: LY6H positive SCLC and T cell acute lymphoblastic leukemia (T-ALL) cell lines; test: Flow cytometry binding of 12G7 to SCLC and T-ALL cell lines (FIG. 2); design: species or system human
Procedure: Dotted lines represent LY6H antibody.
(§1) Staining for flow cytometry was performed in 1× cold PBS with 0.5% BSA. Primary antibodies (1 ug/ml) were incubated with live cells on ice for 30 minutes, after a brief wash, cells were incubated with Alexa Fluro® 488-conjugated anti-human IgG secondary antibody @1:1000 (709-546-149, Jackson ImmunoResearch). Acquisition of the data was performed on a MACSQuant© Flow Cytometers (Miltenyi Biotec) and analyzed with FlowJo software.
Fully human antibodies against LY6H were generated by hybridoma procedures. Briefly, H2L2 mice were immunized with either recombinant human Ly6H-ECD or BaF3 cells over-expressing LY6H and boosted with rabbit splenocytes expressing full length human LY6H or with ECD of LY6H recombinant protein. Splenocytes were fused with the mouse myeloma cell line X63-Ag8.653. Clones from H2L2 mice were identified by immunofluorescence (IF) based high content screening (HCS) on 293 cells overexpressing hLY6H, ratLy6H, and parental 293 cells not expressing LY6H, as well as endogenous small cell lung cancer (SCLC) cell line, H446. […] 270 hits were cryopreserved and stored in liquid nitrogen. Approximately 100 clones were selected for molecular cloning. […]

DMS79 = test: Anti-Ly6H antibodies binding to endogenous cell lines by flow cytometry: DMS79; design: species or system human; key: (−): No binding; (+): Weak binding; (++): Moderate binding; (+++): Strong binding; (++++): Very strong binding; details: primary antibodies 1 ug/ml, live cells on ice 30 minutes
Procedure: as §1
(§2) Fully human antibodies against LY6H were generated by hybridoma procedures. Briefly, H2L2 mice were immunized with either recombinant human Ly6H-ECD or BaF3 cells over-expressing LY6H and boosted with rabbit splenocytes expressing full length human LY6H or with ECD of LY6H recombinant protein. Splenocytes were fused with the mouse myeloma cell line X63-Ag8.653. Clones from H2L2 mice were identified by immunofluorescence (IF) based high content screening (HCS) on 293 cells overexpressing hLY6H, ratLy6H, and parental 293 cells not expressing LY6H, as well as endogenous small cell lung cancer (SCLC) cell line, H446. […] 270 hits were cryopreserved and stored in liquid nitrogen. Approximately 100 clones were selected for molecular cloning. Based on unique CDR3 sequences from the heavy chain variable domain, 10 antibodies from 8 families were chosen and confirmed by flow cytometry (MACSQuant® miltenybiotec.com) on the following cell lines. The small-cell-lung cancer cells (SCLC) included H446, DMS79, and H526 cells. The T-cell acute lymphoblastic leukemia (T-ALL) cancer cells included MOLT3 and KE-37 cells.

H446 = test: Anti-Ly6H antibodies binding to endogenous cell lines by flow cytometry: H446; design: species or system human; key: (−): No binding; (+): Weak binding; (++): Moderate binding; (+++): Strong binding; (++++): Very strong binding; details: primary antibodies 1 ug/ml, live cells on ice 30 minutes
Procedure: as §1, §2

MOLT3 = test: Anti-Ly6H antibodies binding to endogenous cell lines by flow cytometry: MOLT3; design: species or system human; key: (−): No binding; (+): Weak binding; (++): Moderate binding; (+++): Strong binding; (++++): Very strong binding; details: primary antibodies 1 ug/ml, live cells on ice 30 minutes
Procedure: as §1, §2

H446 cells = test: Internalization assay in H446 cells (LAMP1 co-staining); assay type: cell-based, human; details: live H446 cells incubated with antibody at 37° C., fixed, permeablized, LAMP1 co-stain
Procedure: Live H446 cells were incubated with 12G7 for 2 hours, cells were then fixed, permeablized, and co-stained with LAMP1 antibody.
Live H446 cells were incubated with 12G7 antibody for 30 minutes at 37° C. After cytospin, cells were fixed with 4% PFA and permeablized with 100% methanol, and stained with LAMP1 antibody (#9091, Cell Signaling Technology, Inc.).

EOL1 = test: Anti-Ly6H antibodies binding to endogenous cell lines by flow cytometry: EOL1; design: species or system human; key: (−): No binding; (+): Weak binding; (++): Moderate binding; (+++): Strong binding; (++++): Very strong binding; details: primary antibodies 1 ug/ml, live cells on ice 30 minutes
Procedure: as §1
as §2, with “The small-cell-lung cancer cells (SCLC) included H446, DMS79, and H526 cells. The T-cell acute lymphoblastic leukemia (T-ALL) cancer cells included MOLT3 and KE-37 cells.” left out

[2] = target: H446, DMS79, H526, and MOLT3; test: Measurement of antibody EC50 by flow cytometry; assay type: binding, human; details: 100 nM to 0.1 nM antibody
Procedure: The assay uses 3-5 fold dilutions (from 100 nM to 0.1 nM) of antibody of a stock antibody concentration (100 nM) in binding buffer. Serial diluted antibodies were incubated with live cells on ice for 30 minutes, after a brief wash, cells were incubated with Alexa Fluro® 488-conjugated anti-human IgG secondary antibody @1:100, or 15 ug/ml (709-546-149, Jackson ImmunoResearch). Acquisition of the MFI (Median Fluorescent Intensity) was performed on a MACSQuant® Flow Cytometers (Miltenyi Biotec). EC50 was calculated using Dose-response EC50 shift by global fitting from GraphPad Prism.
EC50 or the concentration of antibody that gives half-maximal binding is determined by direct and saturable binding of an antibody dilution series to both target positive and negative cell lines. An estimate of affinity is interpreted from one-half the concentration at which antibody binding first achieves saturation. EC50 was measured in the following cell lines H446, DMS79, H526, and MOLT3 (FIG. 4). Though EC50 may not provide an accurate measure of affinity, it allows for ranking ordering of antibodies. 12G7, 11D9, 10B10, and 6D11 were ranked top, followed by 34H6, 1F8, and 2B11.

H69 = test: Anti-Ly6H antibodies binding to endogenous cell lines by flow cytometry: H69; design: species or system human; key: (−): No binding; (+): Weak binding; (++): Moderate binding; (+++): Strong binding; (++++): Very strong binding; details: primary antibodies 1 ug/ml, live cells on ice 30 minutes
Procedure: as §1
as §2, with “The small-cell-lung cancer cells (SCLC) included H446, DMS79, and H526 cells. The T-cell acute lymphoblastic leukemia (T-ALL) cancer cells included MOLT3 and KE-37 cells.” left out

KE-37 = test: Anti-Ly6H antibodies binding to endogenous cell lines by flow cytometry: KE-37; design: species or system human; key: (−): No binding; (+): Weak binding; (++): Moderate binding; (+++): Strong binding; (++++): Very strong binding; details: primary antibodies 1 ug/ml, live cells on ice 30 minutes
Procedure: as §1, §2

B1: 12G7: human anti-LY6H antibody, VH SEQ ID NO: 22, VL SEQ ID NO: 26 (antibody, V domains shown)
VH: QVQLQQWGAGLLKPSETLSLTCAVYGGSFSGYYWSWIRQPPGKGLEWIGEINHSGSTYYNPSLKSRVTMSVDTSKNQFSLKLSSVTAADTAVYYCAKRWELGAFDIWGQGTMVTVSS
VL: DIQMTQSPSSLSASVGDRVTITCRASQGISNYLAWYQQKPGKVPKLLIYAASTLQSGVPSRFSGSGSGTDFTLTISSLQPEDVATYYCQKYNSAPRTFGQGTKLEIK
**Q.** With B1 as the molecule, how does the “binding to LY6H positive SCLC and T-ALL cell lines” value [1] read?
**A.** binds

**Q.** What about the “binding by flow cytometry, DMS79” value (DMS79) of the same molecule?
**A.** (+++)

**Q.** And the “binding by flow cytometry, H446” value (H446)?
**A.** (++++)

**Q.** And the “binding by flow cytometry, MOLT3” value (MOLT3)?
**A.** (+++)

**Q.** What about the “internalization / co-localization with LAMP1” value (H446 cells) of the same molecule?
**A.** internalization

**Q.** And the “binding by flow cytometry, EOL1” value (EOL1)?
**A.** (−)

**Q.** What about the “rank ordering of antibodies by EC50 (half-maximal binding)” value [2] of the same molecule?
**A.** ranked top

**Q.** And the “binding by flow cytometry, H69” value (H69)?
**A.** (−)

**Q.** And the “binding by flow cytometry, KE-37” value (KE-37)?
**A.** (++++)

B2: 6D11: human anti-LY6H antibody, VH SEQ ID NO: 1, VL SEQ ID NO: 5 (antibody, V domains shown)
VH: QVQLQQWGAGLFKPSETLSLTCAVYGGSFSGSLWSWIRQPPGKGLEWIGEINHSGSTNYTPSLKSRVTISVDTSKNQFSLKLTSVTAADTAVYYCARGRHIVVVTAIHSPFDYWGQGTLVTVSS
VL: DIQMTQSPSSLSASVGDRVTITCRASQGISNYLAWYQQKPGKVPKLLIFAASTLQSGVPSRFSGSGSGTDFTLTISSLQPEDVATYYCQKYNSAPRTFGQGTKLEIK
**Q.** Which results are given for B2?
**A.** binding by flow cytometry, DMS79 (DMS79): (+++); binding by flow cytometry, H446 (H446): (++++); binding by flow cytometry, MOLT3 (MOLT3): (+++); rank ordering of antibodies by EC50 (half-maximal binding) [2]: ranked top; binding by flow cytometry, KE-37 (KE-37): (++++)

B3: 10B10: human anti-LY6H antibody, VH SEQ ID NO: 60, VL SEQ ID NO: 26 (antibody, V domains shown)
VH: QVQLQQWGAGLLKPSETLSLTCAVYGGSFSGYYWHWIRQPPGKGLEWIGEINHSESTKYNPSLKSRVTISVDTSKNQFSLKLSSVTGADTAVYYCARGQHIVVVTDSLGDYWGQGTLVTVSS
VL: DIQMTQSPSSLSASVGDRVTITCRASQGISNYLAWYQQKPGKVPKLLIYAASTLQSGVPSRFSGSGSGTDFTLTISSLQPEDVATYYCQKYNSAPRTFGQGTKLEIK
**Q.** What does the source list for B3?
**A.** binding by flow cytometry, DMS79 (DMS79): (+++); binding by flow cytometry, H446 (H446): (++++); binding by flow cytometry, MOLT3 (MOLT3): (+++); rank ordering of antibodies by EC50 (half-maximal binding) [2]: ranked top; binding by flow cytometry, KE-37 (KE-37): (++++)
